Reference: doi:10.1101/2019.12.23.887380v2

Substrate: O=[N+]([O-])c1ccc(O[C@@H]2O[C@H](CO)[C@@H](O)[C@H](O)[C@H]2O)cc1
Test: purified protein
[1] = WT-1 preparation, absorbance followed 1 h
[2] = tested with WT-1, error exceeds value, poorly determined fit

B1: β-glucosidase B (BglB) (Paenibacillus polymyxa) (protein)
chain: MSENTFIFPATFMWGTSTSSYQIEGGTDEGGRTPSIWDTFCQIPGKVIGGDCGDVACDHFHHFKEDVQLMKQLGFLHYRFSVAWPRIMPAAGIINEEGLLFYEHLLDEIELAGLIPMLTLYHWDLPQWIEDEGGWTQRETIQHFKTYASVIMDRFGERINWWNTINEPYCASILGYGTGEHAPGHENWREAFTAAHHILMCHGIASNLHKEKGLTGKIGITLNMEHVDAASERPEDVAAAIRRDGFINRWFAEPLFNGKYPEDMVEWYGTYLNGLDFVQPGDMELIQQPGDFLGINYYTRSIIRSTNDASLLQVEQVHMEEPVTDMGWEIHPESFYKLLTRIEKDFSKGLPILITENGAAMRDELVNGQIEDTGRHGYIEEHLKACHRFIEEGGQLKGYFVWSFLDNFEWAWGYSKRFGIVHINYETQERTPKQSALWFKQMMAKNGF
Q: How did the Km [1] turn out when B1 was run?
A: 5.4 ± 0.88 mM

Q: And the kcat [1]?
A: 0.6198 ± 0.056 s⁻¹

B2: β-glucosidase B (BglB) (Paenibacillus polymyxa; Y169M) (protein)
chain: MSENTFIFPATFMWGTSTSSYQIEGGTDEGGRTPSIWDTFCQIPGKVIGGDCGDVACDHFHHFKEDVQLMKQLGFLHYRFSVAWPRIMPAAGIINEEGLLFYEHLLDEIELAGLIPMLTLYHWDLPQWIEDEGGWTQRETIQHFKTYASVIMDRFGERINWWNTINEPMCASILGYGTGEHAPGHENWREAFTAAHHILMCHGIASNLHKEKGLTGKIGITLNMEHVDAASERPEDVAAAIRRDGFINRWFAEPLFNGKYPEDMVEWYGTYLNGLDFVQPGDMELIQQPGDFLGINYYTRSIIRSTNDASLLQVEQVHMEEPVTDMGWEIHPESFYKLLTRIEKDFSKGLPILITENGAAMRDELVNGQIEDTGRHGYIEEHLKACHRFIEEGGQLKGYFVWSFLDNFEWAWGYSKRFGIVHINYETQERTPKQSALWFKQMMAKNGF
Q: Which results are given for B2?
A: Km (tested with WT-2): 22.2 ± 5.53 mM; kcat (tested with WT-2): 0.8428 ± 0.2272 s⁻¹

B3: β-glucosidase B (BglB) (Paenibacillus polymyxa; V401A) (protein)
chain: MSENTFIFPATFMWGTSTSSYQIEGGTDEGGRTPSIWDTFCQIPGKVIGGDCGDVACDHFHHFKEDVQLMKQLGFLHYRFSVAWPRIMPAAGIINEEGLLFYEHLLDEIELAGLIPMLTLYHWDLPQWIEDEGGWTQRETIQHFKTYASVIMDRFGERINWWNTINEPYCASILGYGTGEHAPGHENWREAFTAAHHILMCHGIASNLHKEKGLTGKIGITLNMEHVDAASERPEDVAAAIRRDGFINRWFAEPLFNGKYPEDMVEWYGTYLNGLDFVQPGDMELIQQPGDFLGINYYTRSIIRSTNDASLLQVEQVHMEEPVTDMGWEIHPESFYKLLTRIEKDFSKGLPILITENGAAMRDELVNGQIEDTGRHGYIEEHLKACHRFIEEGGQLKGYFAWSFLDNFEWAWGYSKRFGIVHINYETQERTPKQSALWFKQMMAKNGF
Q: B3 was tested. Which Km (tested with WT-2) did it give?
A: 8.27 ± 1.24 mM

Q: What about the kcat (tested with WT-2) of the same protein?
A: 0.341 ± 0.0215 s⁻¹

B4: β-glucosidase B (BglB) (Paenibacillus polymyxa; Q22T) (protein)
chain: MSENTFIFPATFMWGTSTSSYTIEGGTDEGGRTPSIWDTFCQIPGKVIGGDCGDVACDHFHHFKEDVQLMKQLGFLHYRFSVAWPRIMPAAGIINEEGLLFYEHLLDEIELAGLIPMLTLYHWDLPQWIEDEGGWTQRETIQHFKTYASVIMDRFGERINWWNTINEPYCASILGYGTGEHAPGHENWREAFTAAHHILMCHGIASNLHKEKGLTGKIGITLNMEHVDAASERPEDVAAAIRRDGFINRWFAEPLFNGKYPEDMVEWYGTYLNGLDFVQPGDMELIQQPGDFLGINYYTRSIIRSTNDASLLQVEQVHMEEPVTDMGWEIHPESFYKLLTRIEKDFSKGLPILITENGAAMRDELVNGQIEDTGRHGYIEEHLKACHRFIEEGGQLKGYFVWSFLDNFEWAWGYSKRFGIVHINYETQERTPKQSALWFKQMMAKNGF
Q: What does the source list for B4?
A: Km [2]: 99.02 ± 247.88 mM; kcat [2]: 0.00433 ± 0.001 s⁻¹

B5: β-glucosidase B (BglB) (Paenibacillus polymyxa; W438D) (protein)
chain: MSENTFIFPATFMWGTSTSSYQIEGGTDEGGRTPSIWDTFCQIPGKVIGGDCGDVACDHFHHFKEDVQLMKQLGFLHYRFSVAWPRIMPAAGIINEEGLLFYEHLLDEIELAGLIPMLTLYHWDLPQWIEDEGGWTQRETIQHFKTYASVIMDRFGERINWWNTINEPYCASILGYGTGEHAPGHENWREAFTAAHHILMCHGIASNLHKEKGLTGKIGITLNMEHVDAASERPEDVAAAIRRDGFINRWFAEPLFNGKYPEDMVEWYGTYLNGLDFVQPGDMELIQQPGDFLGINYYTRSIIRSTNDASLLQVEQVHMEEPVTDMGWEIHPESFYKLLTRIEKDFSKGLPILITENGAAMRDELVNGQIEDTGRHGYIEEHLKACHRFIEEGGQLKGYFVWSFLDNFEWAWGYSKRFGIVHINYETQERTPKQSALDFKQMMAKNGF
Q: What does the source list for B5?
A: Km (tested with WT-2): 10.28 ± 2.14 mM; kcat (tested with WT-2): 0.1765 ± 0.0275 s⁻¹

B6: β-glucosidase B (BglB) (Paenibacillus polymyxa; F155G) (protein)
chain: MSENTFIFPATFMWGTSTSSYQIEGGTDEGGRTPSIWDTFCQIPGKVIGGDCGDVACDHFHHFKEDVQLMKQLGFLHYRFSVAWPRIMPAAGIINEEGLLFYEHLLDEIELAGLIPMLTLYHWDLPQWIEDEGGWTQRETIQHFKTYASVIMDRGGERINWWNTINEPYCASILGYGTGEHAPGHENWREAFTAAHHILMCHGIASNLHKEKGLTGKIGITLNMEHVDAASERPEDVAAAIRRDGFINRWFAEPLFNGKYPEDMVEWYGTYLNGLDFVQPGDMELIQQPGDFLGINYYTRSIIRSTNDASLLQVEQVHMEEPVTDMGWEIHPESFYKLLTRIEKDFSKGLPILITENGAAMRDELVNGQIEDTGRHGYIEEHLKACHRFIEEGGQLKGYFVWSFLDNFEWAWGYSKRFGIVHINYETQERTPKQSALWFKQMMAKNGF
Q: Which Km (tested with WT-1) does the source give for B6 here?
A: 6.10 mM

Q: What about the kcat (tested with WT-1) of the same protein?
A: 0.3093 s⁻¹

B7: β-glucosidase B (BglB) (Paenibacillus polymyxa; W123R) (protein)
chain: MSENTFIFPATFMWGTSTSSYQIEGGTDEGGRTPSIWDTFCQIPGKVIGGDCGDVACDHFHHFKEDVQLMKQLGFLHYRFSVAWPRIMPAAGIINEEGLLFYEHLLDEIELAGLIPMLTLYHRDLPQWIEDEGGWTQRETIQHFKTYASVIMDRFGERINWWNTINEPYCASILGYGTGEHAPGHENWREAFTAAHHILMCHGIASNLHKEKGLTGKIGITLNMEHVDAASERPEDVAAAIRRDGFINRWFAEPLFNGKYPEDMVEWYGTYLNGLDFVQPGDMELIQQPGDFLGINYYTRSIIRSTNDASLLQVEQVHMEEPVTDMGWEIHPESFYKLLTRIEKDFSKGLPILITENGAAMRDELVNGQIEDTGRHGYIEEHLKACHRFIEEGGQLKGYFVWSFLDNFEWAWGYSKRFGIVHINYETQERTPKQSALWFKQMMAKNGF
Q: What does the source list for B7?
A: Km [2]: 49.63 ± 324.02 mM; kcat [2]: 0.00025 ± 0.0013 s⁻¹
